{"source": "the supplement of paper PMC9170038", "tested_on": "MS2 coat protein", "assay": "apparent KD of MS2 coat protein; designed switch direction (-1 OFF switch, 1 ON switch): -1; higher = weaker reporter binding", "summary_of_the_method": "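An oligonucleotide input, 200 uM small-molecule ligand, or no input was present during titration of SNAP-549-labelled MS2 coat protein, which was doubled from 0.7 or 1.5 nM to 3 µM. Designed RNA switches had been transcribed on Illumina chips by stalled E. coli RNA polymerase. Apparent KD per design is the median over clusters of curves fitted to normalised cluster fluorescence.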", "key": {"[1]": {"conditions": "Eterna round: R95, input ligand: FMN 200 uM"}, "[2]": {"conditions": "Eterna round: R95, input ligand: microRNA oligo, concentration not stated"}, "[3]": {"conditions": "Eterna round: R95, input ligand: none"}, "[4]": {"conditions": "input ligand: microRNA oligo, concentration not stated"}}}
{"sequence": "GUAGAGUAAGGAUAUGUUGAAUAGGAUAGAAUGGUUAGAAAACAGAAGGUACAUGAGGAUCACCCAUGUAAUGU [Excluse me!!!! 11 - Jieux - Exclusion 4] (puzzle: Exclusion 4)", "values": [{"measurement": "apparent KD of MS2 coat protein", "setting": "[1]", "value": 20, "unit": "nM"}, {"measurement": "apparent KD of MS2 coat protein", "setting": "[2]", "value": 19.1, "unit": "nM"}, {"measurement": "apparent KD of MS2 coat protein", "setting": "[3]", "value": 17.6, "unit": "nM"}]}
{"sequence": "GUAGAUCGAGUUAGGAUAUGAUUAAAAUCCGGAUAUCAGAAGGAACUUGAGGAUCACCCAAGUAUAGAUGAUUU [JR_BMEx4_Sub055] (Eterna round: R97, puzzle: Brourd's mod of Exclusion 4)", "values": [{"measurement": "apparent KD of MS2 coat protein", "setting": "input ligand: FMN 200 uM", "value": 104, "unit": "nM"}, {"measurement": "apparent KD of MS2 coat protein", "setting": "input ligand: none", "value": 23.2, "unit": "nM"}]}
{"sequence": "GUAUAACUACACGGGCUCAACAUGAGGAUCACCCAUGUCAUAUACGCAAGCUUUUUGCUUGUCUUAUCAGGCCGUGA [Ceatxe] (puzzle: Sensor v3, turn-off variant 1)", "values": [{"measurement": "apparent KD of MS2 coat protein", "setting": "[1]", "value": 13.5, "unit": "nM"}, {"measurement": "apparent KD of MS2 coat protein", "setting": "[2]", "value": 16.5, "unit": "nM"}, {"measurement": "apparent KD of MS2 coat protein", "setting": "[3]", "value": 12.4, "unit": "nM"}]}
{"sequence": "GUCACAUGGACAUAGGAUCACAUGAGGAUCACCCAUGUGACUAACAAGCUUUUUGUUCGUCUUAUGUCCAUGUGAAG [Stov1/15-B3] (Eterna round: R97, puzzle: Sensor, turn-off variant 1)", "values": [{"measurement": "apparent KD of MS2 coat protein", "setting": "input ligand: FMN 200 uM", "value": 12.4, "unit": "nM"}, {"measurement": "apparent KD of MS2 coat protein", "setting": "input ligand: none", "value": 12, "unit": "nM"}]}
{"sequence": "GUCAGACGAGGAUAUAAACGAUAUAACAUGAGGAUCACCCAUGUACGAUCGAAUGAUCGUUUAGAAGGCGUCUGAC [E5/10-A4] (Eterna round: R97, puzzle: Exclusion 5)", "values": [{"measurement": "apparent KD of MS2 coat protein", "setting": "input ligand: FMN 200 uM", "value": 17.3, "unit": "nM"}, {"measurement": "apparent KD of MS2 coat protein", "setting": "input ligand: none", "value": 16.7, "unit": "nM"}]}
{"sequence": "GUCAGCUCGUCAGGAUAUACAUGAGGAUCACCCAUGUGAUCAAUAGCAGCUUCGGCUGCAAUAAUGUAGAAGGGACGAGCUGAC [ENG2/8-F] (Eterna round: R96, puzzle: Exclusion NG 2)", "values": [{"measurement": "apparent KD of MS2 coat protein", "setting": "input ligand: FMN 200 uM", "value": 129, "unit": "nM"}, {"measurement": "apparent KD of MS2 coat protein", "setting": "[4]", "value": 578, "unit": "nM"}, {"measurement": "apparent KD of MS2 coat protein", "setting": "input ligand: none", "value": 180, "unit": "nM"}]}
{"sequence": "GUCAGCUCGUCAGGAUAUACAUGAGGAUCACCCAUGUGAUCAAUAGCAGCUUCGGCUGCAUUAAUGUAGAAGGGACGAGCUGAC [ENG2/5-B1] (Eterna round: R96, puzzle: Exclusion NG 2)", "values": [{"measurement": "apparent KD of MS2 coat protein", "setting": "input ligand: FMN 200 uM", "value": 34.7, "unit": "nM"}, {"measurement": "apparent KD of MS2 coat protein", "setting": "[4]", "value": 33, "unit": "nM"}, {"measurement": "apparent KD of MS2 coat protein", "setting": "input ligand: none", "value": 368, "unit": "nM"}]}
{"sequence": "GUCAGCUCGUCAGGAUAUACAUGAUAGAUCGAUUAAUUAAUUAAUUUAACAUGAGGAUCACCCAUGUAGAAGGGACGAGCUGAC [ENG2/1-B1] (Eterna round: R96, puzzle: Exclusion NG 2)", "values": [{"measurement": "apparent KD of MS2 coat protein", "setting": "[4]", "value": 39.8, "unit": "nM"}]}
{"sequence": "GUCAGCUCGUGAGGAUAUACAUGAGGAUCACCCAUGUGAUCAAUAGCAGCUUCGGCUGCAUUAAUGUAGAAGGUACGAGCUGAU [ENG2/5-C2] (Eterna round: R96, puzzle: Exclusion NG 2)", "values": [{"measurement": "apparent KD of MS2 coat protein", "setting": "input ligand: FMN 200 uM", "value": 105, "unit": "nM"}, {"measurement": "apparent KD of MS2 coat protein", "setting": "[4]", "value": 231, "unit": "nM"}, {"measurement": "apparent KD of MS2 coat protein", "setting": "input ligand: none", "value": 463, "unit": "nM"}]}
{"sequence": "GUCAGCUCGUGAGGAUAUAUAUACAUGAGGAUCACCCAUGUAAGAUCAGCACUUCGGUGCAGUAUAUAGAAGGCACGAGCUGAC [ENG2/13-A1] (Eterna round: R96, puzzle: Exclusion NG 2)", "values": [{"measurement": "apparent KD of MS2 coat protein", "setting": "input ligand: FMN 200 uM", "value": 46.1, "unit": "nM"}, {"measurement": "apparent KD of MS2 coat protein", "setting": "[4]", "value": 21.6, "unit": "nM"}, {"measurement": "apparent KD of MS2 coat protein", "setting": "input ligand: none", "value": 29.1, "unit": "nM"}]}
{"sequence": "GUCAGCUCGUGAGGAUAUAUAUUAACAUGAGGAUCACCCAUGUAAGAUCAGCUUCGGCAGUUAAUAUAGAAGGCACGAGCUGAC [ENG2/14-A1] (Eterna round: R96, puzzle: Exclusion NG 2)", "values": [{"measurement": "apparent KD of MS2 coat protein", "setting": "[4]", "value": 137, "unit": "nM"}]}
{"sequence": "GUCAGCUCGUGAGGAUAUGCACAUGAGGAUCACCCAUGUAAGAUCAAGCUGCUUCGGCAGCAAGUGCAGAAGGUACGAGCUGAU [ENG2/9-C3] (Eterna round: R96, puzzle: Exclusion NG 2)", "values": [{"measurement": "apparent KD of MS2 coat protein", "setting": "input ligand: FMN 200 uM", "value": 257, "unit": "nM"}, {"measurement": "apparent KD of MS2 coat protein", "setting": "[4]", "value": 225, "unit": "nM"}, {"measurement": "apparent KD of MS2 coat protein", "setting": "input ligand: none", "value": 286, "unit": "nM"}]}
{"sequence": "GUCAUCGCAGGAUAUUAGAGUUUUUACAUGAGGAUCACCCAUGUUAAUUGGGUUAAUGUCUAAGAAGGGCGAUGAA [JR_EX5_Sub013] (Eterna round: R97, puzzle: Exclusion 5)", "values": [{"measurement": "apparent KD of MS2 coat protein", "setting": "input ligand: FMN 200 uM", "value": 126, "unit": "nM"}, {"measurement": "apparent KD of MS2 coat protein", "setting": "input ligand: none", "value": 67.4, "unit": "nM"}]}
{"sequence": "GUCCGGCAUGUAGGAUAUGGAUCCGAUUAGGAUUUAGAAGGACAUGAGGAUCACCCAUGUGCAUUUAAUUAGUCAUUACCGGAC [EXclNG1-LROPPY04] (Eterna round: R96, puzzle: Exclusion NG 1)", "values": [{"measurement": "apparent KD of MS2 coat protein", "setting": "input ligand: FMN 200 uM", "value": 16.4, "unit": "nM"}, {"measurement": "apparent KD of MS2 coat protein", "setting": "[4]", "value": 12.5, "unit": "nM"}, {"measurement": "apparent KD of MS2 coat protein", "setting": "input ligand: none", "value": 16.6, "unit": "nM"}]}
{"sequence": "GUCCUUUCUGAGGAUAUUAUCCUUUUCGAUUGAUAAGAAGGCAGUACAUGAGGAUCACCCAUGUGGGUUGUCUG [Polaris30] (Eterna round: R97, puzzle: Exclusion 6)", "values": [{"measurement": "apparent KD of MS2 coat protein", "setting": "input ligand: FMN 200 uM", "value": 45.8, "unit": "nM"}, {"measurement": "apparent KD of MS2 coat protein", "setting": "input ligand: none", "value": 38.2, "unit": "nM"}]}
{"sequence": "GUCGUGCAGCUUUGCUGUACGAGUACAUGAGGAUCACCCAUGUAGGAUAUGGUACGCUUUGCGUGCCAGAAGGGCGUGCGUUGG [salish99_ExNG3_r04_005] (Eterna round: R96, puzzle: Exclusion NG 3)", "values": [{"measurement": "apparent KD of MS2 coat protein", "setting": "input ligand: FMN 200 uM", "value": 30.2, "unit": "nM"}, {"measurement": "apparent KD of MS2 coat protein", "setting": "[4]", "value": 24, "unit": "nM"}, {"measurement": "apparent KD of MS2 coat protein", "setting": "input ligand: none", "value": 34.6, "unit": "nM"}]}
{"sequence": "GUCGUGCGGCUUUGCUGUACGAGUACAUGAGGAUCACCCAUGUAGGAUAUGGUUCGUUUUGCGUGCUAGAAGGGCGUGCGUUGU [Excl-NG3-LRO15] (Eterna round: R96, puzzle: Exclusion NG 3)", "values": [{"measurement": "apparent KD of MS2 coat protein", "setting": "[4]", "value": 17.9, "unit": "nM"}]}
{"sequence": "GUGAACUCGCUACUUACCAACAUGAGGAUCACCCAUGUGGGAGAAAGUGAAUAGCUAGUUGUUACGUCUUAAUCCAG [Eternabot (L1) Solution 47] (Eterna round: R97, puzzle: Sensor, turn-off variant 1)", "values": [{"measurement": "apparent KD of MS2 coat protein", "setting": "input ligand: FMN 200 uM", "value": 12.7, "unit": "nM"}, {"measurement": "apparent KD of MS2 coat protein", "setting": "input ligand: none", "value": 13, "unit": "nM"}]}
{"sequence": "GUGAAUGCAAGCUUUAAAUACAUGAGGAUCACCCAUGUAAACGCUAACCGCGAUAAUUACUGGGUACCUCCCGUCUU [Eternabot (L2) Solution 44] (Eterna round: R97, puzzle: Sensor, turn-off variant 1)", "values": [{"measurement": "apparent KD of MS2 coat protein", "setting": "input ligand: FMN 200 uM", "value": 8.7, "unit": "nM"}, {"measurement": "apparent KD of MS2 coat protein", "setting": "input ligand: none", "value": 24.9, "unit": "nM"}]}
{"sequence": "GUGACCAUAGGAUAUACAUGAGGAUCACCCAUGUGCAGGCCGAAAGACCUGCGGUCAUGUAGAAGGAUGUAAUU [EX3 A.17] (Eterna round: R97, puzzle: Exclusion 3)", "values": [{"measurement": "apparent KD of MS2 coat protein", "setting": "input ligand: FMN 200 uM", "value": 19.6, "unit": "nM"}, {"measurement": "apparent KD of MS2 coat protein", "setting": "input ligand: none", "value": 16.4, "unit": "nM"}]}
{"sequence": "GUGAGGGAGUGAGGAUAUCAGGGAGGUGGGAAAUGAGAAGGUACAUGAGGAUCACCCAUGUAAGAGUAGGGAAGAGAGAAGAGU [Default title] (Eterna round: R96, puzzle: Exclusion NG 1)", "values": [{"measurement": "apparent KD of MS2 coat protein", "setting": "input ligand: FMN 200 uM", "value": 78.7, "unit": "nM"}, {"measurement": "apparent KD of MS2 coat protein", "setting": "[4]", "value": 109, "unit": "nM"}, {"measurement": "apparent KD of MS2 coat protein", "setting": "input ligand: none", "value": 83.8, "unit": "nM"}]}
{"sequence": "GUGAGUAGUCAGGAUAUGCUGUACAAAAGUACAGCAGAAGGGAUUACAUGAGGAUCACCCAUGUUUACUUCGUG [Omei Ex6 B3] (Eterna round: R97, puzzle: Exclusion 6)", "values": [{"measurement": "apparent KD of MS2 coat protein", "setting": "input ligand: FMN 200 uM", "value": 105, "unit": "nM"}, {"measurement": "apparent KD of MS2 coat protein", "setting": "input ligand: none", "value": 29.7, "unit": "nM"}]}
